Reference: the supplement of paper PMC5998384

Key:
HeLa Kyoto [1] = experiment: thermal stability score vs G1/S (z-score of summed log2 fold changes over temperatures); higher = more thermally stable than in G1/S
HeLa Kyoto [2] = experiment: solubility in G1/S (NP-40 vs SDS abundance) (log2 ratio); higher = more soluble; details: cell cycle stage: G1/S
HeLa Kyoto [3] = experiment: melting temperature (median over replicates), in situ; higher = more thermally stable
HeLa Kyoto [4] = experiment: solubility change mitosis vs G1/S (difference of NP-40 vs SDS log2 ratios) (log2 ratio difference); higher = more soluble in mitosis
[5] = cell cycle stage: early G1 (4.5 h after nocodazole release)
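Throughout, for melting temperature (median over replicates), in situ: HeLa Kyoto cells synchronized by double thymidine or nocodazole block, proteins quantified by TMT10plex mass spectrometry, three independent biological replicates.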
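Throughout, for solubility change mitosis vs G1/S (difference of NP-40 vs SDS log2 ratios): synchronized HeLa Kyoto cells (double thymidine block for G1/S, nocodazole release for mitosis), protein amounts in NP-40 versus SDS lysates quantified by mass spectrometry, three biological replicates.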
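Throughout, for solubility in G1/S (NP-40 vs SDS abundance): HeLa Kyoto cells arrested at G1/S by double thymidine block, proteins quantified by TMT10plex mass spectrometry in mild NP-40 versus SDS extracts, three biological replicates.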
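Throughout, for thermal stability score vs G1/S (z-score of summed log2 fold changes over temperatures): synchronized HeLa Kyoto cells, proteins quantified by TMT10plex mass spectrometry, three biological replicates, mitosis taken 0.5 h after nocodazole release, G1/S directly after double thymidine block.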

| Substance | thermal stability score (HeLa Kyoto [1]; [5]) | thermal stability score (HeLa Kyoto [1]; cell cycle stage: mitosis) | solubility in G1/S (log2) (HeLa Kyoto [2]) | melting temperature (HeLa Kyoto [3]; cell cycle stage: G1/S) | melting temperature (HeLa Kyoto [3]; cell cycle stage: mitosis) | solubility change mitosis (log2) (HeLa Kyoto [4]) |
| --- | --- | --- | --- | --- | --- | --- |
| MEEGHGLDLTYITERIIAVSFPAGCSEESYLHNLQEVTRMLKSKHGDNYLVLNLSEKRYDLTKLNPKIMDVGWPELHAPPLDKMCTICKAQESWLNSNLQHVVVIHCRGGKGRIGVVISSYMHFTNVSASADQALDRFAMKKFYDDKVSALMQPSQKRYVQFLSGLLSGSVKMNASPLFLHFVILHGTPNFDTGGVCRPFLKLYQAMQPVYTSGIYNVGPENPSRICIVIEPAQLLKGDVMVKCYHKKYRSATRDVIFRLQFHTGAVQGYGLVFGKEDLDNASKDDRFPDYGKVELVFSATPEKIQGSEHLYNDHGVIVDYNTTDPLIRWDSYENLSADGEVLHTQGPVDGSLYAKVRKKSSSDPGIPGGPQAIPATNSPDHSDHTLSVSSDSGHSTASARTDKTEERLAPGTRRGLSAQEKAELDQLLSGFGLEDPGSSLKEMTDARSKYSGTRHVVPAQVHVNGDAALKDRETDILDDEMPHHDLHSVDSLGTLSSSEGPQSAHLGPFTCHKSSQNSLLSDGFGSNVGEDPQGTLVPDLGLGMDGPYERERTFGSREPKQPQPLLRKPSVSAQMQAYGQSSYSTQTWVRQQQMVVAHQYSFAPDGEARLVSRCPADNPGLVQAQPRVPLTPTRGTSSRVAVQRGVGSGPHPPDTQQPSPSKAFKPRFPGDQVVNGAGPELSTGPSPGSPTLDIDQSIEQLNRLILELDPTFEPIPTHMNALGSQANGSVSPDSVGGGLRASSRLPDTGEGPSRATGRQGSSAEQPLGGRLRKLSLGQYDNDAGGQLPFSKCAWGKAGVDYAPNLPPFPSPADVKETMTPGYPQDLDIIDGRILSSKESMCSTPAFPVSPETPYVKTALRHPPFSPPEPPLSSPASQHKGGREPRSCPETLTHAVGMSESPIGPKSTMLRADASSTPSFQQAFASSCTISSNGPGQRRESSSSAERQWVESSPKPMVSLLGSGRPTGSPLSAEFSGTRKDSPVLSCFPPSELQAPFHSHELSLAEPPDSLAPPSSQAFLGFGTAPVGSGLPPEEDLGALLANSHGASPTPSIPLTATGAADNGFLSHNFLTVAPGHSSHHSPGLQGQGVTLPGQPPLPEKKRASEGDRSLGSVSPSSSGFSSPHSGSTISIPFPNVLPDFSKASEAASPLPDSPGDKLVIVKFVQDTSKFWYKADISREQAIAMLKDKEPGSFIVRDSHSFRGAYGLAMKVATPPPSVLQLNKKAGDLANELVRHFLIECTPKGVRLKGCSNEPYFGSLTALVCQHSITPLALPCKLLIPERDPLEEIAESSPQTAANSAAELLKQGAACNVWYLNSVEMESLTGHQAIQKALSITLVQEPPPVSTVVHFKVSAQGITLTDNQRKLFFRRHYPVNSVIFCALDPQDRKWIKDGPSSKVFGFVARKQGSATDNVCHLFAEHDPEQPASAIVNFVSKVMIGSPKKV [TNS3] | 1.68 | 3.85 | 0.127 | 48 °C | 49.8 °C | -0.126 |
| MQLRNPELHLGCALALRFLALVSWDIPGARALDNGLARTPTMGWLHWERFMCNLDCQEEPDSCISEKLFMEMAELMVSEGWKDAGYEYLCIDDCWMAPQRDSEGRLQADPQRFPHGIRQLANYVHSKGLKLGIYADVGNKTCAGFPGSFGYYDIDAQTFADWGVDLLKFDGCYCDSLENLADGYKHMSLALNRTGRSIVYSCEWPLYMWPFQKPNYTEIRQYCNHWRNFADIDDSWKSIKSILDWTSFNQERIVDVAGPGGWNDPDMLVIGNFGLSWNQQVTQMALWAIMAAPLFMSNDLRHISPQAKALLQDKDVIAINQDPLGKQGYQLRQGDNFEVWERPLSGLAWAVAMINRQEIGGPRSYTIAVASLGKGVACNPACFITQLLPVKRKLGFYEWTSRLRSHINPTGTVLLQLENTMQMSLKDLL | -3.45 | -2.97 | 0.24 | 55.1 °C | 56.7 °C | -0.105 |
| DMXL1 | 0.592 | 1.02 | -0.236 | 51.4 °C | 50.9 °C | -0.0423 |
| MQTPVNIPVPVLRLPRGPDGFSRGFAPDGRRAPLRPEVPEIQECPIAQESLESQEQRARAALRERYLRSLLAMVGHQVSFTLHEGVRVAAHFGATDLDVANFYVSQLQTPIGVQAEALLRCSDIISYTFKP [GEMIN7] | -0.755 | -0.344 | -0.401 | 53 °C | – | -0.0302 |
| MKGTRAIGSVPERSPAGVDLSLTGLPPPVSRRPGSAATTKPIVRSVSVVTGSEQKRKVLEATGPGGSQAINNLRRSNSTTQVSQPRSGSPRPTEPTDFLMLFEGSPSGKKRPASLSTAPSEKGATWNVLDDQPRGFTLPSNARSSSALDSPAGPRRKECTVALAPNFTANNRSNKGAVGNCVTTMVHNRYTPSERAPPLKSSNQTAPSLNNIIKAATCEGSESSGFGKLPKNVSSATHSARNNTGGSTGLPRRKEVTEEEAERFIHQVNQATVTIQRWYRHQVQRRGAGAARLEHLLQAKREEQRQRSGEGTLLDLHQQKEAARRKAREEKARQARRAAIQELQQKRALRAQKASTAERGPPENPRETRVPGMRQPAQELSPTPGGTAHQALKANNTGGGLPAAGPGDRCLPTSDSSPEPQQPPEDRTQDVLAQDAAGDNLEMMAPSRGSAKSRGPLEELLHTLQLLEKEPDVLPRPRTHHRGRYAWASEVTTEDDASSLTADNLEKFGKLSAFPEPPEDGTLLSEAKLQSIMSFLDEMEKSGQDQLDSQQEGWVPEAGPGPLELGSEVSTSVMRLKLEVEEKKQAMLLLQRALAQQRDLTARRVKETEKALSRQLQRQREHYEATIQRHLAFIDQLIEDKKVLSEKCEAVVAELKQEDQRCTERVAQAQAQHELEIKKLKELMSATEKARREKWISEKTKKIKEVTVRGLEPEIQKLIARHKQEVRRLKSLHEAELLQSDERASQRCLRQAEELREQLEREKEALGQQERERARQRFQQHLEQEQWALQQQRQRLYSEVAEERERLGQQAARQRAELEELRQQLEESSSALTRALRAEFEKGREEQERRHQMELNTLKQQLELERQAWEAGRTRKEEAWLLNREQELREEIRKGRDKEIELVIHRLEADMALAKEESEKAAESRIKRLRDKYEAELSELEQSERKLQERCSELKGQLGEAEGENLRLQGLVRQKERALEDAQAVNEQLSSERSNLAQVIRQEFEDRLAASEEETRQAKAELATLQARQQLELEEVHRRVKTALARKEEAVSSLRTQHEAAVKRADHLEELLEQHRRPTPSTK [CEP131] | -0.343 | 1.44 | 0.0853 | 50.5 °C | 49.2 °C | 0.357 |
| MLLAVLLLLPLPSSWFAHGHPLYTRLPPSALQVLSAQGTQALQAAQRSAQWAINRVAMEIQHRSHECRGSGRPRPQALLQDPPEPGPCGERRPSTANVTRAHGRIVGGSAAPPGAWPWLVRLQLGGQPLCGGVLVAASWVLTAAHCFVGAPNELLWTVTLAEGSRGEQAEEVPVNRILPHPKFDPRTFHNDLALVQLWTPVSPGGSARPVCLPQEPQEPPAGTACAIAGWGALFEDGPEAEAVREARVPLLSTDTCRRALGPGLRPSTMLCAGYLAGGVDSCQGDSGGPLTCSEPGPRPREVLFGVTSWGDGCGEPGKPGVYTRVAVFKDWLQEQMSASSSREPSCRELLAWDPPQELQADAARLCAFYARLCPGSQGACARLAHQQCLQRRRRCELRSLAHTLLGLLRNAQELLGPRPGLRRLAPALALPAPALRESPLHPARELRLHSGSRAAGTRFPKRRPEPRGEANGCPGLEPLRQKLAALQGAHAWILQVPSEHLAMNFHEVLADLGSKTLTGLFRAWVRAGLGGRHVAFSGLVGLEPATLARSLPRLLVQALQAFRVAALAEGEPEGPWMDVGQGPGLERKGHHPLNPQVPPARQP [PRSS56] | 1.67 | 3.49 | 0.296 | 53.2 °C | 53.3 °C | -0.116 |
| KPNA6 | 1.85 | 4.59 | 0.0416 | 47.6 °C | 48.8 °C | -0.0516 |
| MSPAPDAAPAPASISLFDLSADAPVFQGLSLVSHAPGEALARAPRTSCSGSGERESPERKLLQGPMDISEKLFCSTCDQTFQNHQEQREHYKLDWHRFNLKQRLKDKPLLSALDFEKQSSTGDLSSISGSEDSDSASEEDLQTLDRERATFEKLSRPPGFYPHRVLFQNAQGQFLYAYRCVLGPHQDPPEEAELLLQNLQSRGPRDCVVLMAAAGHFAGAIFQGREVVTHKTFHRYTVRAKRGTAQGLRDARGGPSHSAGANLRRYNEATLYKDVRDLLAGPSWAKALEEAGTILLRAPRSGRSLFFGGKGAPLQRGDPRLWDIPLATRRPTFQELQRVLHKLTTLHVYEEDPREAVRLHSPQTHWKTVREERKKPTEEEIRKICRDEKEALGQNEESPKQGSGSEGEDGFQVELELVELTVGTLDLCESEVLPKRRRRKRNKKEKSRDQEAGAHRTLLQQTQEEEPSTQSSQAVAAPLGPLLDEAKAPGQPELWNALLAACRAGDVGVLKLQLAPSPADPRVLSLLSAPLGSGGFTLLHAAAAAGRGSVVRLLLEAGADPTVQDSRARPPYTVAADKSTRNEFRRFMEKNPDAYDYNKAQVPGPLTPEMEARQATRKREQKAARRQREEQQQRQQEQEEREREEQRRFAALSDREKRALAAERRLAAQLGAPTSPIPDSAIVNTRRCWSCGASLQGLTPFHYLDFSFCSTRCLQDHRRQAGRPSS [ANKZF1] | 0.638 | 1.02 | 0.0804 | 49.7 °C | 50.1 °C | -0.104 |
| MNRFRVSKFRHTEARPPRRESWISDIRAGTAPSCRNHIKSSCSLIAFNSDRPGVLGIVPLQGQGEDKRRVAHLGCHSDLVTDLDFSPFDDFLLATGSADRTVKLWRLPGPGQALPSAPGVVLGPEDLPVEVLQFHPTSDGILVSAAGTTVKVWDAAKQQPLTELAAHGDLVQSAVWSRDGALVGTACKDKQLRIFDPRTKPRASQSTQAHENSRDSRLAWMGTWEHLVSTGFNQMREREVKLWDTRFFSSALASLTLDTSLGCLVPLLDPDSGLLVLAGKGERQLYCYEVVPQQPALSPVTQCVLESVLRGAALVPRQALAVMSCEVLRVLQLSDTAIVPIGYHVPRKAVEFHEDLFPDTAGCVPATDPHSWWAGDNQQVQKVSLNPACRPHPSFTSCLVPPAEPLPDTAQPAVMETPVGDADASEGFSSPPSSLTSPSTPSSLGPSLSSTSGIGTSPSLRSLQSLLGPSSKFRHAQGTVLHRDSHITNLKGLNLTTPGESDGFCANKLRVAVPLLSSGGQVAVLELRKPGRLPDTALPTLQNGAAVTDLAWDPFDPHRLAVAGEDARIRLWRVPAEGLEEVLTTPETVLTGHTEKICSLRFHPLAANVLASSSYDLTVRIWDLQAGADRLKLQGHQDQIFSLAWSPDGQQLATVCKDGRVRVYRPRSGPEPLQEGPGPKGGRGARIVWVCDGRCLLVSGFDSQSERQLLLYEAEALAGGPLAVLGLDVAPSTLLPSYDPDTGLVLLTGKGDTRVFLYELLPESPFFLECNSFTSPDPHKGLVLLPKTECDVREVELMRCLRLRQSSLEPVAFRLPRVRKEFFQDDVFPDTAVIWEPVLSAEAWLQGANGQPWLLSLQPPDMSPVSQAPREAPARRAPSSAQYLEEKSDQQKKEELLNAMVAKLGNREDPLPQDSFEGVDEDEWD [CORO7] | 0.406 | 0.778 | -0.00965 | 51 °C | 51.9 °C | 0.159 |
| RSRC2 | 2.6 | 0.263 | -0.575 | 51.8 °C | 52.2 °C | 0.135 |
| MAQEVSEYLSQNPRVAAWVEALRCDGETDKHWRHRRDFLLRNAGDLAPAGGAASASTDEAADAESGTRNRQLQQLISFSMAWANHVFLGCRYPQKVMDKILSMAEGIKVTDAPTYTTRDELVAKVKKRGISSSNEGVEEPSKKRVIEGKNSSAVEQDHAKTSAKTERASAQQENSSTCIGSAIKSESGNSARSSGISSQNSSTSDGDRSVSSQSSSSVSSQVTTAGSGKASEAEAPDKHGSASFVSLLKSSVNSHMTQSTDSRQQSGSPKKSALEGSSASASQSSSEIEVPLLGSSGSSEVELPLLSSKPSSETASSGLTSKTSSEASVSSSVAKNSSSSGTSLLTPKSSSSTNTSLLTSKSTSQVAASLLASKSSSQTSGSLVSKSTSLASVSQLASKSSSQTSTSQLPSKSTSQSSESSVKFSCKLTNEDVKQKQPFFNRLYKTVAWKLVAVGGFSPNVNHGELLNAAIEALKATLDVFFVPLKELADLPQNKSSQESIVCELRCKSVYLGTGCGKSKENAKAVASREALKLFLKKKVVVKICKRKYRGSEIEDLVLLDEESRPVNLPPALKHPQELL [CDKN2AIP] | 1.13 | 1.43 | -0.0572 | 50.2 °C | 50.8 °C | -0.0367 |
